Laboratory results from US20180265573A1.

Target: hemagglutinin of influenza A virus A/New Caledonia/20/99 (H1) (influenza A virus A/New Caledonia/20/99 (H1))

B1: monoclonal antibody GG3 (antibody, V domains shown)
VH: QIQLVQSGPELKKPGETVKISCKASGYTFTNYGMNWVKQAPGKGLKWMGWINIYSGESTYVDDFTGRFAFSLETSASTAYLQINNLKNEDMATYFCARSGDTMITAGRSFFAMDYWGQGTSVTVSS
VL: DIQMTQSPSSLSASLGERVSLTCRASQEISGYLSWLQQKPDGTIKRLIYAASTLDSGVPKRFSGSRSGSDYSLSISSLESEDFADYYCLQYANYPWSFGGGTKLEIK
- IC50 (read off the curve), plaque reduction neutralization assay: 6 µg/mL
